We go through 20 sequences from the DeepSol protein solubility set.

The data set can be described thus: soluble on expression in E. coli; label from the status in PepcDB or PDB records.
Regarding “MKITVIVPTYRRTKDLTRCLESLEKQSRPADEVLVVVRDTDVETWQFLETIAPHSLPLHTTTVRVPGVVAAMNAGLDIAQGDIIAFTDDDAAPHSNWLAQIETHFLAHEQIAGVGGRDWVYHGDRLEDGTCPVVGQVHWFGRVIGNHHIGIGKPREVDVLKGVNMSFRRSAVHGLRFDQRMLGTGAQVHFEVAFCLALKRAGWKLIYDPQIGVNHYPAQRFLEHHHHHH”, the “soluble on expression in E. coli” value is reported as “not soluble”.

“DRGRMANIFGANNFYYAKSQAMLYTVSQNADFITAGLVDPVFLPLGNQQRAATHLNEPKSQKILFIVAESWGLPANPELQNATFAKLLAQKDRFSVWESGSFPFIGATVEGEMRELCAYGGLRGFALRRAPDEKFARCLPNRLKQEGYATFAMHGAGSSLYDRFSWYPRAGFQEIKTAENLIGKKTCAIFGGVCDSELFGEVSAFFKKHDKGLFYWMTLTSHADYPESDIFNHRLKCTEYGLPAETDLCRNFSLHTQFFDQLADLIQRPEMKGTEVIIVGDHPPPVGNLNETFRYLKQGHVAWLNFKIK”: the “soluble on expression in E. coli” value was “not soluble”.

As for “APIKGVTFGEDTVWEVQGYKNVRITFELDERVDKVLNEKCSVYTVESGTEVTEFACVVAEAVVKTLQPVSDLLTNMGIDLDEWSVATFYLFDDAGEENFSSRMYCSFYPPDE”, the “soluble on expression in E. coli” value is reported as “soluble”.

Turning to “MEKAIHNLGKDARLHIIHILLQNRSKKELADELGITPAAITKYLKGITHPSDEIIEKCIEIASEDEEYHEIIKVIVSDITEALMELLREIGIEKMIDNEDIQKLKKLLDKAFDKMLSTSPSFV”, the “soluble on expression in E. coli” value was “not soluble”.

Consider “PNGDKVHAWYWQSPRRDAPTVLYLHGARWNLNGSAFRMEGWTRMGYSMLAIDYRGFGQSTPLLPSEQSASQDAAAALQELARRQPDPARRFIYGHSLGGAIAIDLAARPDLPPFAGLIVESSFTSIGAMLGTMKWGWVPGATLLVTQPFASVDKLAALTTPMLLLHGTADRVVPHTMSDELYRAAQQVPADLKRLVKIEGASHSGAIRSGRIYEDAVADFVRDAGRGYAGRQGAPTPLTASRPGT”, for which the “soluble on expression in E. coli” value is on record as “not soluble”.

Turning to “MWLSSEELSAKKTACHVRNVESNKEFADSDIVASFVHNRPKDLKNLTFERHGKGGRKKAPIFSVKGDISEHVVEVGADVNCLDEGFDFAVALVDKRTGEATYRPARFYSFESKFSEDIEKIFSDKKESSSEEYKNDFSIGAEKWAEKRRQLTSNFGSSKKIKMDEAAQRRTINQETLDEMRKTAFASNSNVKTEDGAADVKLENITMMNKAESSILPPAVQTELSRDIYPISLFLEDIEIDAIESIATELMEKKKKEKLEAGIPECVTLIMYNEKTKQRAAAYLLLSTMIEILTKMGKQRQLLRKDLSELKMPDILRQKVQAQFFNDSTNEKGYTGRGAERIRLNVTDYDRFIAHTLALALTLAPEHKVPITPFQQALSYQPSKLEKMFQALGADLIRLDVASAQTLRSLRAAILLKPPSLEQKGPRKIIRR”, the “soluble on expression in E. coli” value was “not soluble”.

Regarding “MDQSIRHLLGNLSLFTPPEEAAVYAEQHAVNKNEPLYFVVFPQADTALSELLVAGYQKLLENNFWGLTNSTQEAKDLMSRYGNTGLELYAHSRGSMTLGNMLYSFQQQGVHGIANENTTINLYGPAFNVLVASDLLGYVSDGKQTTVGFDGHRYDFVSRWIGGNSYTYKTIPSDSNAWKEWWRMFTDPDNPHTCLGDANAICNTLYGSSHLKQKP”, the “soluble on expression in E. coli” value is listed as “not soluble”.

In the case of “MNEKTINEQYAYIRTLLEEKRLKEALMQLESLLWQCPDWDLRTRLEQLQTSYKYMLEYMRQGANDPERWNVYRKLIADTWEIADRSRLLMLDNASSRYYHEVRRTPRPESLSAYTLKKLLHMLESFNDDLAVSGLLSDEKMDEVLKRHEETLKYMFLQTWTNSAWTPEEEEDAQSMLTSELLPVNDLCLFISAVTLSLMECFDLRKIMWLLDAYRHPDVNAGQRALVGVIFIFHIYKNRLSLYNDLVKRVDLMDEISPFKEDVARIYHQMLLCQETEKIDKKMREEIIPEMLKNVSSMRNMRFGFEENEDENDDKNPDWADAFEQSGLGDKLREMNELQLEGADVYMSTFAALKSYPFFREVQNWFYPFSKQQSDVIKQLKQEGNEKNTLLDLILQSGFFSNSDKYSLFFTIRQLPKAQQDMMLSQLGEQQVAELTEKSSAETMKKFNERPGTVSNQYLHDLYRFFKLSVRRHEFRDIFKEKLDLHHIPALSNVLYSEDILFPIADFYLKKERWNEAIEVYEEMETIGALQERGAEYYQKLGYALQKSKKYAEAIGAYLKADTLKPDNIWNNRHLAICYRLNRNYQAALSYYKKVEEATPEDTNVIFHIGSCLAELGQYEEAANYFFKLDFIESNCIKAWRGIGWCSFISRKYEQAMKYYEKIIEQKPLAIDYMNAGHVAWTMGDIQKAAALYGKSITANGNRERFLEMFRKDEEALLKQGIQEEDIPLMLDLL”, the “soluble on expression in E. coli” value is “not soluble”.

Turning to “MGSDKIHHHHHHMYQIQIRIWFNFISKNKHHMLGTMSDSYDFFLSMSEITFALDPKYEFDKDIGCVLSLIKNTKELRFRINQYINKYKNKSPSLNRLNTFINTLEENENFYLLPAIENVSQTQLIKLQTSLSLVHLDELGKDAYIKSFNSNFSDFIDQYSMNGIDPKEVKGKKKIGEGFKANRVCRFCNNKNEKPTTFAKEAHAISESLGNKKIILNEECDLCNEYFDQNIERDIDTYLKLYSSFFRVKNKDNKVSKIKGKNFSFEYINTTIDGHDRHIDFVLAHTPTNSESCNSDSEPPKNVDLCFHQKIRKQNIYKSLVKFALSVIHDRKDLSEFNKAIEWIKSPTKFYEQLPKIAILKNYQFYCTEPALIVYISKNKKQGLPYAVGEFHYTFLTYIFIIPLFKSDEVEFSQQNNFDDFIKFFPQFKRMDEWSFEDFSDYEEKEFVLNMILSQRDEG”, the “soluble on expression in E. coli” value was “not soluble”.

Consider “MPTFLELNTTISVKEKELLTKEQFDKLLQAPNTTTLARLLHQSVYHLTVDDLNDLDRLESILMAELTKTYRWAFAETPQPDIVQLFTLRYTYHNVKVLLKAKASQADLSHLLLPIGDKPLVALEHLIRTMTSDEFPKEVVTEIQSIWAEYQDYQDIRVLEIGTDLAYFKALKQIAQRLEDPVFQQAVLIVIDLYNLITVRRAKSQNKPISFMMQLLSDEASRPSKTFITLEDDKDLMTWFENVTPDSYMTALKPYSEKLRQGTLQTTELEYLVDECLYHLFAKAKYQVDGPYVLARFLLAKSFEVKNLRLLAAALANDLPKERVIERMRPIA”, for which the “soluble on expression in E. coli” value is “not soluble”.

Regarding “MGSDKIHHHHHHHPHSFVDLKNKVLVDGTQLKGFQMEWTMDEIASAELIYEVKNNPDHQAAKKSITAEMEQTAIENHYFSYLYNAKDQPLKFSVKPSNTTFRIAGNRVVFYITFYLSKPYDLKNNAIRFYTYEPSYYMAMEYNNQQDLSINSSECKAKLTQPNVNNSLRLYASSLDKNQKPNMPDGEDNSLGAQFAQTVEVVCE”, the “soluble on expression in E. coli” value was “not soluble”.

As to “MILCSEKEKCEGIKNSKDEGIIPRVLILSTLQGEPSREKAKIGIFGINPGPHLPFERLYYTDILKKHGLFTSEYSKSNAIKAFKEIHDTWVSEFIKNYRNYPFHYKYFANTLEFLKKAKTVLIYRRKYNSVWRISILLEHHHHHH”, the “soluble on expression in E. coli” value was “not soluble”.

For the sequence “QLSAGCGELSPQIGGGWLWSSMHRSGRYGTQQQRAGSKTAGPPCQWSRMASEGTNIPSPVVRQIDKQFLICSICLERYKNPKVLPCLHTFCERCLQNYIPAHSLTLSCPVCRQTSILPEKGVAALQNNFFITNLMDVLQRTPGSNAEESSILETVTAVAAGKPLSCPNHDGNVMEFYCQSCETAMCRECTEGEHAEHPTVPLKDVVEQHKASLQVQLDAVNKRLPEIDSALQFISEIIHQLTNQKASIVDDIHSTFDELQKTLNVRKSVLLMELEVNYGLKHKVLQSQLDTLLQGQESIKSCSNFTAQALNHGTETEVLLVKKQMSEKLNELADQDFPLHPRENDQLDFIVETEGLKKSIHNLGTILTTNAVASETVATGEGLRQTIIGQPMSVTITTKDKDGELCKTGNAYLTAELSTPDGSVADGEILDNKNGTYEFLYTVQKEGDFTLSLRLYDQHIRGSPFKLKVIRSADVSPTTEGVKRRVKSPGSGHVKQKAVKRPASMYSTGKRKENPIEDDLIFRVGTKGRNKGEFTNLQGVAASTNGKILIADSNNQCVQIFSNDGQFKSRFGIRGRSPGQLQRPTGVAVHPSGDIIIADYDNKWVSIFSSDGKFKTKIGSGKLMGPKGVSVDRNGHIIVVDNKACCVFIFQPNGKIVTRFGSRGNGDRQFAGPHFAAVNSNNEIIITDFHNHSVKVFNQEGEFMLKFGSNGEGNGQFNAPTGVAVDSNGNIIVADWGNSRIQVFDGSGSFLSYINTSADPLYGPQGLALTSDGHVVVADSGNHCFKVYRYLQ”, the “soluble on expression in E. coli” value is reported as “soluble”.

Turning to “MGSDKIHHHHHHMAYPFNHKEFVAMMEQYNLKSNSITIPEHTILNDLVTENRDCVYLLKSGILAGYIDFDNDKIYSIFTSNFFMGYYTIFDNASLVLTYQTLTECELIIYKKKDIEYSLSLFPENFSFQYTIMRTIAKHGYYKSLLQYRDKKDQLAFVFEMLVKILDIPVEDGVAVLPKSISTTVIKNYCTLSKAFFYSQLKELKEAGIISKVKLQWRINMEALSEKNNSIN”, the “soluble on expression in E. coli” value is “not soluble”.

With “GLDNELSLVDGQDRTLTVQQWDTFLNGVFPLDRNRLTREWFHSGRAKYIVAGPGADEFEGTLELGYQIGFPWSLGVGINFSYTTPNILIDDGDITRPPFGLNSVITPNLFPGVSISADLGNGPGIQEVATFSVDVSGAEGGVAVSNAHGTVTGAAGGVLLRPFARLIASTGDSVTTYGEPWNMN”, the “soluble on expression in E. coli” value is recorded as “soluble”.

As to “MAREELRRHLVGLIERSRVVIFSKSYCPHSTRVKELFSSLGVECNVLELDQVDDGARVQEVLSEITNQKTVPNIFVNKVHVGGCDQTFQAYQSGLLQKLLQEDLAYDAENLYFQ”, the “soluble on expression in E. coli” value is on record as “soluble”.

“SPPIGNQLGALVHQRTVITEEFKVPDKMVGFIIGRGGEQISRIQAESGCKIQIASESSGIPERPCVLTGTPESIEQAKRLLGQIVDRCRNGPGFHNDIDSNSTIQEILIPASKVGLVIGRGGETIKQLQERTGVKMVMIQDGPLPTGADKPLRITGDAFKVQQAREMVLEIIREKDQADFRGVRGDFNSRMGGGSIEVSVPRFAVGIVIGRNGEMIKKIQNDAGVRIQFKPDDGISPEYYRQQVAFYGQTLGQAQAHSQEQ”: the “soluble on expression in E. coli” value was “soluble”.

In the case of “MAHHHHHHMFTLLCCADLAGNKVNLEIALDTFPATLRGLESDIARIFNREVEKSGAVEHNANVAEPFQVMSVFVYDDVLLRWTKLESLTQLHEYDQLYVFQPQTQWHVDVQKELPPPRPPARSRASSITGASGTLASLQVNGCASSPWPRSGISTRISAAGDIDTSHSPVPSRSPARAQLEEHRREEERLAHRLSTLRRVREHLEREAQREEEEERRRRSLETYRLLKCKEEEIWSQRDALARAEEEFRQFLAEKQRLMGQSPSP”, the “soluble on expression in E. coli” value is “not soluble”.

As to “MKENFQIHIWLGLLLCLLGMSCSDDTPAKGDDPGNGNTELEVNEWIESVMRSDYLWNNDIPAQNKLDFSADPQTFFRSMLSLKDGKTRNGKHLYYYSYMEKNKDYKARTSIDADDTYGMEFTLFNVVNDSNQPLGYYYARILYVLPNSPASSAGLERGDWIVGVKGRNNINSDNYGILLNGDRTQWLVKRGDTEVRTIDIEASRAVEDNPLFYHNVYTRGDKKIGYLVYNHFTSGPNGYSDRTYDEEMKKIFAGFQAQGVNEFVLDLRYNGGGYENSANMLAGLLIPEASRKKVFAVFSDNKGQSYSNDFCVETKGTAGYLKLNSNRIYILTSQSTASSSEVVINSLNPFMDVILIGELTEGKNVGMEMQKNDKYEWIYWPITLRVTNAVNDDYSAGFKPDIEWNEYDLTQNPTDALLPLGDPDEFMLGKAISLITGINRSARSMNTLGIFSKCL”, the “soluble on expression in E. coli” value is “not soluble”.

Consider “MARGLNRVFLIGALATRPDMRYTPAGLAILDLTLAGQDLLLSDNGGEREVSWYHRVRLLGRQAEMWGDLLDQGQLVFVEGRLEYRQWEREGERRSELQIRADFLDPLDDRGKERAEDSRGQPRLRAALNQVFLMGNLTRDPELRYTPQGTAVARLGLAVNERRQGAEERTHFVEVQAWRDLAEWAAELRKGDGLFVIGRLVNDSWTSSSGERRFQTRVEALRLERPTRGPAQAGGSRSREVQTGGVDIDEGLEDFPPEEELPF”, for which the “soluble on expression in E. coli” value is recorded as “soluble”.
